Patent US20200102389A1 (Hoffmann-La Roche, published 2020)

B1: HLA-G-0037 (antibody, V domains shown)
VH: QVQLKESGPGLVQPSQTLSLTCSVSGFSLTTYSVSWVRQPPGKGLEWIGAIWSGGSTDYNSALKSRLRISRDTSKSQVLLKMNSLQTEDRAMYFCVRMNNKFGYWYFDLWGPGTMVTVSS
VL: DTVLTQSPTLAVSPGEKITISCRASETVSTMLHWYQQKPGQQPKLLISLASHLESGVPARFTGSGSGTDFTLTIDPVEADDTATYYCQQTWNDPLTFGSGTKLEIK
B2: HLA-G-0033 (antibody, V domains shown)
VH: EVQLVETGGGLVQSGRSLKLSCVASGFTFNDYWMTWTRQAPGKGLEWVASITNSGGRTYYLDSVRGRFTISRDDAQNTLYLQMNSLRSEDTATYYCTKERIYLTAYWFFDFWGPGTMVTVSS
VL: DTILTQSPALAVSPGERVTISCRASESVSTLIHWYQQKPGQRPKLLIYLASHLESGVPARFSGSGSGTDFTLTIDPVEADDTATYYCQQSWNEPRTFGGGTKLELK
B3: HLA-G-0032 (antibody, V domains shown)
VH: QVQLQQSGAELVKPGSSVKISCKASGYSFPSYDMHWIKQQPGNGLEWIGWIYPGNGNTKYNQKFNGKASLTADKSSSTAYMQLSSLTSEDSAVYFCAKPTVATRYNWFAYWGQGTLVTVSS
VL: QIVLTQSPALMSASPGEKVTMTCSASSSVNYMHWYQQKPRSSPKPWIYLTSNLASGVPARFSGSGSGTSYSLTISTMEAEDAATYYCQQWSSNLPITFGSGTKLEIK

Key:
[1] = molecular target: T1, recombinant soluble human HLA-G β2M MHC class I complex, monomer (human); test: competition ELISA, immobilised HLA-G monomer, antibody titrated, competitor c-myc ILT2
T1 construct: His tagged; also called HLA-G-0003
Description: Streptavidin coated plates (Nunc, MicroCoat #11974998001) were coated with 25 μl/well biotinylated human wt HLA-G at a concentration of 500 ng/ml and incubated at 4° C. overnight. After washing (3×90 μl/well with PB ST-buffer) 25 μl anti-HLA-G samples were added in decreasing concentrations starting at 8 μg/ml, then diluted in 1:3 steps and incubated 1 h at RT. After washing (3×90 μl/well with PBST-buffer) 25 μl/well c-myc-tagged recombinant ILT-2 receptor was added at a concentration of 150 ng/ml and incubated for 1 h at room temperature. After washing (3×90 μl/well with PBST-buffer) 25 μl/well goat-anti-c-myc-POD (Bethyl #A190-104P 1:7000 in OSE) was added and incubated at RT for 1 h on a shaker. After washing (6×90 μl/well with PBST-buffer), 25 μl/well TMB substrate (Roche, 11835033001) was added and incubated until OD 2-3. Measurement took place on a Tecan Safire 2 instrument at 370/492 nm
The ELISA was set up by coating the biotinylated antigen wt HLA-G to strepdavidin plates. After incubation and washing steps, the respective antibodies were bound in a concentration range from 8-0 μg in 1:3 dilution steps. C-myc tagged ILT-2 or -4 receptor was added to the HLA-G-antibody complexes. After incubation and washing steps, detection of bound receptor was carried out by anti-cmyc-antibody-POD conjugates. IC50 values were determined from the resulting inhibition curves at the antibody concentrations generating the half-maximal inhibition. In case of the non-biotinylated HLA-G dimer and trimer antigens, immobilization was carried out by random coating on assay plates.

[2] = molecular target: T2, modified human HLA-G β2M MHC class I complex (HLA-G specific amino acids replaced by HLA-A consensus amino … (human)); test: SPR (Biacore T200), antibody captured via anti-Fc, degrafted HLA-G complex injected, 25 C, 1:1 fit
T2 construct: also called degrafted HLA-G
Description: Binding kinetics of anti-HLA-G antibodies to human HLA-G, human HLA-G degrafted and human HLA-A2 were investigated by surface plasmon resonance using a BIACORE T200 instrument (GE Healthcare). All experiments were performed at 25° C. using PBS Buffer (pH 7.4+0.05% Tween20) as running buffer and PBS Buffer (+0.1% BSA) as dilution buffer. Anti-human Fc (JIR009-005-098, Jackson) or anti-rat Fc (JIR112-005-071, Jackson) or anti-Mouse Fc (JIR115-005-071, Jackson) antibodies were immobilized on a Series S CM5 Sensor Chip (GE Healthcare) at pH 5.0 by using an amine coupling kit supplied by GE Healthcare. Anti-HLA-G antibodies were captured on the surface leading to a capturing response of 50-200 RU. HLA-G molecules were injected for 180 s at 30 μl/min with concentrations from 2.5 up to 800 nM (2×1:2 and 4×1:3 dilution series) onto the surface (association phase). The dissociation phase was monitored for 300-600 sec by washing with running buffer. […] Bulk refractive index differences were corrected by subtracting the response obtained from a mock surface. Blank injections were subtracted (double referencing). The derived curves were fitted to a 1:1 Langmuir binding model using the BIAevaluation software.
The above table summarizes the antibody affinities and t1/2 values against wt and degrafted HLA-G as assessed by Surface plasmon resonance (Biacore) analysis. Binding kinetics of anti-HLA-G antibodies to human HLA-G, human HLA-G degrafted and human HLA-A2 were investigated by surface plasmon resonance using a BIACORE T200 instrument (GE Healthcare). All experiments were performed at 25° C. using PBS Buffer (pH 7.4+0.05% Tween20) as running buffer and PBS Buffer (+0.1% BSA) as dilution buffer. Anti-human Fc (JIR009-005-098, Jackson) or anti-rat Fc (JIR112-005-071, Jackson) or anti-Mouse Fc (JIR115-005-071, Jackson) antibodies were immobilized on a Series S CM5 Sensor Chip (GE

[3] = molecular target: T3, recombinant soluble human HLA-G β2M MHC class I complex, trimer (human); test: blocking ELISA, Fc tagged ILT4 coated, 100 nM antibody, soluble HLA-G trimer
T3 construct: also called HLA-G Trimer; fraction A8
Description: The ELISA was set up by coating the Fc tagged ILT2 and ILT4 respectively to Maxisorp microtiter plates. After incubation and washing steps, the respective antibodies were added at a concentration of 100nM. Soluble His tagged monomeric, dimeric or trimeric HLA-G was added to the wells. After incubation and washing steps, detection of bound receptor was carried out by anti-His-antibody-POD conjugates.

[4] = molecular target: T4, human HLA-G expressed on cells (JEG3 naturally; SKOV3 HLA-G+ and PA-TU-8902 HLA-G+ transfectants) (human, UniProt P17693 25-338); test: flow cytometry, JEG3 cells pre-incubated with antibody, competitor ILT2-Fc chimera
T4 construct: whole, on cells; also called cell surface HLA-G; HLA-G on JEG3 cells
Description: For analysis, JEG3 cells (ATCC HTB36) were stained with ILT2-Fc fusion proteins (control=no inhibition) with or without pre-incubation with different anti-HLA-G antibodies. For the pre-incubation with anti-HLA-G antibodies 25 μl/well of the cell suspension was transferred into a polypropylene 96-Well V-bottom plate and prechilled in the at 4° C. for 10 min. Anti HLA-G antibodies or reference antibodies (G233, MEM-G/9 or 87G) were diluted in staining buffer to a 2-fold concentration of 20 μg/ml and 25 μl/well of the antibody solution was added to the prepared cells and incubated for 1 h at 5° C. Cells were washed twice with 200 μl/well staining buffer with centrifugation at 300 g for 3 min and finally resuspended in 25 μl/well staining buffer.
The detection of human ILT2-Fc Chimera protein (RD #2017-T2-050) to a) JEG3 cells pre-incubated anti HLA-G mAb or b) untreated JEG3 cells as reference was determined as follows: Briefly, the ILT2-Fc or control human IgG (Jackson-Immuno-Research #009-000-003) were diluted in staining buffer to a 2-fold concentration of 20 μg/ml (ILT2) and 25 μl/well of the ILT2-Fc protein solution was added to the prepared cells and incubated for 2 h at 5° C. Cells were again washed twice with 200 μl/well staining buffer the human ILT2-Fcprotein was detected with fluorescent labeled anti human IgG Fc-gamma specific antibody (F(ab′)₂ Fragment Goat Anti-Human IgG, Fcy fragment specific-FITC, Jackson-Immuno-Research #109-096-008) at a dilution of 10 μg/ml in staining buffer. Cell pellets were resuspended in 50 μl/well detection antibody. After a 1-hour incubation at 5° C. cells were washed twice with staining buffer, resuspended in 70 μl and measured at a FACS Canto II to determine ILT2 binding to JEG 3 cells.

| Binder | IC50 [1] [nM] | Kd [2] [nM] | koff [2] [s⁻¹] | kon [2] [M⁻¹ s⁻¹] | t ½ [2] [min] | % inh. ILT4 [3] [%] | Inhibition of ILT2 binding to Jeg3 cells [4] [%] |
| --- | --- | --- | --- | --- | --- | --- | --- |
| B1 | 13 | 2120 | 0.116 | 54700 | 0.1 | 67 | 96.5 |
| B2 | 8 | 3.62 | 0.0345 | 9.54e+06 | 0.3 | 71 | -9.3 |
| B3 | 8.4 |  |  |  |  | 68 | 98.1 |
